Experimental findings from article PMC4109716 are described below.

Common to all, as to assay: smFRET
For data set [1], the target named is T1, POT1 (Homo sapiens, UniProt Q9NUX5 1-634).
T1 sequence: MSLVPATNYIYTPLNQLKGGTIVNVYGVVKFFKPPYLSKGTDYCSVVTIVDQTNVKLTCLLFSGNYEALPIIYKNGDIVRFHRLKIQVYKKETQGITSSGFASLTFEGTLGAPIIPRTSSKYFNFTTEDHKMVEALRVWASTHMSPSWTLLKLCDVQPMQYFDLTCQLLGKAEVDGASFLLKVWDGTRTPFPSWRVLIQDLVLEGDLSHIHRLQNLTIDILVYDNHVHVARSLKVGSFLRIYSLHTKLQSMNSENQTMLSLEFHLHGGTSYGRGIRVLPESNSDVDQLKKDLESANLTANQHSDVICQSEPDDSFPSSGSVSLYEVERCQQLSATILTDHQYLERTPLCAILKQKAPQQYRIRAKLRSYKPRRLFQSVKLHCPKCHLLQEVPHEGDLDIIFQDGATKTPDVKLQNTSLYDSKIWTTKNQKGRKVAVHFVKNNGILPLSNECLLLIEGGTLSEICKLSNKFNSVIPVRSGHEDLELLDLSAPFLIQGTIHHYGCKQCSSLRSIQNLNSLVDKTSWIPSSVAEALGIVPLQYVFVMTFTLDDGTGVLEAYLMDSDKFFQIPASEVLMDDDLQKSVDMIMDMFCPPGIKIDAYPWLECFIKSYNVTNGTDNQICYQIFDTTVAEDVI

The target in data set [2] is T2, POT1;TPP1N-Alexa 647 (Homo sapiens;Homo sapiens?, UniProt Q9NUX5;Q96AP0 1-634;3-248, |).
The target in data set [3] is T1, POT1. This is another data set of the same source.
Data set [4] concerns the target T1, POT1. The source holds these as a separate data set.
Data set [5] deals with T1, POT1. The source holds these as a separate data set.
Data set [6] has as its target T3, POT1;TPP1N (Homo sapiens;Homo sapiens?, UniProt Q9NUX5;Q96AP0 1-634;3-248, |).
In data set [7] the target is T1, POT1. This is another data set of the same source.
For data set [8], the target named is T2, POT1;TPP1N-Alexa 647. This is another data set of the same source.
The target of data set [9] is T1, POT1. This is another data set of the same source.
The target of data set [10] is T2, POT1;TPP1N-Alexa 647. This is another data set of the same source.
Data set [11] addresses T3, POT1;TPP1N. This is another data set of the same source.

Substitutions are numbered along the chain they refer to. Read-outs that look alike come from different tables or passages of the source.

T2 sequence (Q96AP0 3-248, one chain of several): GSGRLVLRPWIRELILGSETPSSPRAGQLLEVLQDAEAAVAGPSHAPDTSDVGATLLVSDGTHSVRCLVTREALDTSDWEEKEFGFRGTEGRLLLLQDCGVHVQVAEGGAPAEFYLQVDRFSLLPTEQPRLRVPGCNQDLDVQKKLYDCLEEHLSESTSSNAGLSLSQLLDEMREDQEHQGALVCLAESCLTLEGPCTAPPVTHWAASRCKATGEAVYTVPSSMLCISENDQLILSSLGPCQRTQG
T3 sequence (Q96AP0 3-248, one chain of several): as above

B1: G3 (mixed)
DNA 1: TGGCGACGGCAGCGAGGCTTAGGGTTAGGGTTAGGG
DNA 2: GCCTCGCTGCCGTCGCCA
In the case of B1, in the data set with POT1 [1], the binding result is listed as “binds”.

B2: G2-mut4 (unlabelled stem strand) (mixed)
DNA 1: TGGCGACGGCAGCGAGGCTTAGGGTTAGGGTTTGGCTTTGGCTTTGGCTTTGGC
DNA 2: GCCTCGCTGCCGTCGCCA
For the molecule B2, in the data set with POT1;TPP1N-Alexa 647 [2], the binding result was “binds”.

B3: OB2 mutant (mixed)
DNA 1: TGGCGACGGCAGCGAGGCTTAGGGTTTT
DNA 2: GCCTCGCTGCCGTCGCCA
Take B3: in the data set with POT1 [3], the binding result is on record as “binds”.

B4: G2 (mixed)
DNA 1: TGGCGACGGCAGCGAGGCTTAGGGTTAGGG
DNA 2: GCCTCGCTGCCGTCGCCA
B4: the binding result with POT1 [4] is “binds”.

B5: G4 (24 nt FRET) (mixed)
DNA 1: TGGCGACGGCAGCGAGGCTTAGGGTTAGGGTTAGGGTTAGGG
DNA 2: GCCTCGCTGCCGTCGCCA
On to B5, for which the binding result with POT1 [5] and with POT1;TPP1N [6] was “binds” each time.

B6: G4 (6 nt Cy3) (mixed)
DNA 1: B5 DNA 1
DNA 2: GCCTCGCTGCCGTCGCCA
modifications: internal Cy3 in strand 1 after nt 24
Turning to B6, the binding result with POT1 [7] was “binds”.

B7: G2-mut2 (unlabelled stem strand) (mixed)
DNA 1: B5 DNA 1 with A33T, G36C, A39T, G42C
DNA 2: GCCTCGCTGCCGTCGCCA
For B7, the binding result with POT1;TPP1N-Alexa 647 [8] is listed as “binds”.

B8: G2-mut2 (FRET with Cy5 stem) (mixed)
DNA 1: B5 DNA 1 with A33T, G36C, A39T, G42C
DNA 2: GCCTCGCTGCCGTCGCCA
Take B8: in the data set with POT1 [9], the binding result is listed as “binds”.

B9: G4 (3'Cy3, unlabelled stem strand) (mixed)
DNA 1: B5 DNA 1
DNA 2: GCCTCGCTGCCGTCGCCA
As to B9, the binding result in the data set with POT1;TPP1N-Alexa 647 [10] was “binds”.

B10: G4 (18 nt Cy3) (mixed)
DNA 1: B5 DNA 1
DNA 2: GCCTCGCTGCCGTCGCCA
modifications: internal Cy3 in strand 1 after nt 36
For the molecule B10, the binding result with POT1;TPP1N [11] and with POT1 [7] was “binds” in each case.
